Measured values: US20040248196A1 (COMMONWEALTH SCIENTIFIC AND INDUSTRIAL RESEARCH ORGANISATION, published 2004)

Legend:
[1] = biological target: T1, M 2-EGFR (wild-type N-terminus FLAG-tagged EGF receptor) (human, UniProt P00533 25-1210); experiment: Scatchard plot (B/F specific against Bound) of 125I-EGF binding to BaF/3 cells expressing wt EGFR, cold ligand titration, fitted with Radlig; first (high affinity) of two sites
T1 construct: whole, on cells; Stably expressed on BaF/3 cells; also called wt EGFR; wild type EGFR; not shown: N-terminal FLAG tag

[2] = biological target: T1, M 2-EGFR (wild-type N-terminus …); experiment: Scatchard plot (B/F specific against Bound) of 125I-EGF binding to BaF/3 cells expressing wt EGFR, cold ligand titration, fitted with Radlig; second (low affinity) of two sites
M 2-EGFR E 21A [3] = biological target: T2, M 2-EGFR E 21A (human, UniProt P00533 25-1210); experiment: Scatchard plot (B/F specific against Bound) of 125I-EGF binding to BaF/3 cells expressing E21A EGFR, cold ligand titration, fitted with Radlig; first (high affinity) of two sites
T2 construct: whole, on cells; Transiently expressed in 293 cells and stably expressed in BaF/3 cells; also called Glu 21Ala; not shown: N-terminal FLAG tag
Protocol: This was determined in total cell lysates by sequential immunoblotting with anti-phosphotyrosine (top) or anti-EGFR (bottom) antibodies. […] Cross-linking of the EGFR via the extracellular portion was performed at 37° C. to maximize dimer yield. Samples were analyzed by SDS-PAGE on 3-8% gradient gels and immunoblotting with anti-EGFR antibodies.
The isolation and characterisation of stably transfected cell lines expressing wild-type and mutant EGFRs was performed using the II3-dependent murine hemopoietic lineage BaF/3 (Walker et al, 1998, Growth Factors 16, 53-67). Expression vectors containing the appropriate EGFR constructs were transfected individually by electroporation using a Gene Pulser (BioRad) according to manufacturer's instructions. Neomycin-resistant pools were generated by selection in G 418, and cloned by limiting dilution to obtain stable cell lines.

M 2-EGFR E 21A [4] = biological target: T2, M 2-EGFR E 21A; experiment: Scatchard plot (B/F specific against Bound) of 125I-EGF binding to BaF/3 cells expressing E21A EGFR, cold ligand titration, fitted with Radlig; second (low affinity) of two sites

- Kd [1]: 0.039 nM
- Kd [2]: 1.1 nM
- Kd (M 2-EGFR E 21A [3]): 0.045 nM
- Kd (M 2-EGFR E 21A [4]): 1.1 nM
B1: iodinated murine EGF (ligand, UniProt P01132 977-1029, looked up)
chain: NSYPGCPSSYDGYCLNGGVCMHIESLDSYTCNCVIGYSGDRCQTRDLRWWELR
modifications: 125I-iodinated (site not stated)
notes: mature; Unlabelled EGF was used for the cold titration
